Assay results as given in PMC6397515.

What was measured:
[1] = biological target: HypT RD M206Q mutant protein (Salmonella enterica serovar Typhimurium); test: crystal structure
[2] = biological target: full-length StHypT protein (HypT of Salmonella enterica serovar Typhimurium, WP_000383509) (Salmonella enterica serovar Typhimurium); test: crystal structure
[3] = biological target: full-length StHypT protein (HypT of Salmonella enterica serovar Typhimurium, WP_000383509) (Salmonella enterica serovar Typhimurium); test: SEC

Substance	stoichiometry N [1]	stoichiometry N [2]	stoichiometry N [3]
HypT RD M206Q mutant protein (domain or fragment)	2		
full-length StHypT protein (HypT of Salmonella enterica serovar Typhimurium, WP_000383509) (natural protein)		4	4
